Biological target: the molecule itself
Assay: SEC

B1: GCN2^K619R, kinase dead mutant of human General Control Non-derepressible 2 (GCN2) (enzyme, UniProt Q9P2K8 1-1649, looked up)
chain: MAGGRGAPGRGRDEPPESYPQRQDHELQALEAIYGADFQDLRPDACGPVKEPPEINLVLYPQGLTGEEVYVKVDLRVKCPPTYPDVVPEIELKNAKGLSNESVNLLKSRLEELAKKHCGEVMIFELAYHVQSFLSEHNKPPPKSFHEEMLERRAQEEQQRLLEAKRKEEQEQREILHEIQRRKEEIKEEKKRKEMAKQERLEIASLSNQDHTSKKDPGGHRTAAILHGGSPDFVGNGKHRANSSGRSRRERQYSVCNSEDSPGSCEILYFNMGSPDQLMVHKGKCIGSDEQLGKLVYNALETATGGFVLLYEWVLQWQKKMGPFLTSQEKEKIDKCKKQIQGTETEFNSLVKLSHPNVVRYLAMNLKEQDDSIVVDILVEHISGVSLAAHLSHSGPIPVHQLRRYTAQLLSGLDYLHSNSVVHKVLSASNVLVDAEGTVKITDYSISKRLADICKEDVFEQTRVRFSDNALPYKTGKKGDVWRLGLLLLSLSQGQECGEYPVTIPSDLPADFQDFLKKCVCLDDKERWSPQQLLKHSFINPQPKMPLVEQSPEDSEGQDYVETVIPSNRLPSAAFFSETQRQFSRYFIEFEELQLLGKGAFGAVIKVQNKLDGCCYAVRRIPINPASRQFRRIKGEVTLLSRLHHENIVRYYNAWIERHERPAGPGTPPPDSGPLAKDDRAARGQPASDTDGLDSVEAAAPPPILSSSVEWSTSGERSASARFPATGPGSSDDEDDDEDEHGGVFSQSFLPASDSESDIIFDNEDENSKSQNQDEDCNEKNGCHESEPSVTTEAVHYLYIQMEYCEKSTLRDTIDQGLYRDTVRLWRLFREILDGLAYIHEKGMIHRDLKPVNIFLDSDDHVKIGDFGLATDHLAFSADSKQDDQTGDLIKSDPSGHLTGMVGTALYVSPEVQGSTKSAYNQKVDLFSLGIIFFEMSYHPMVTASERIFVLNQLRDPTSPKFPEDFDDGEHAKQKSVISWLLNHDPAKRPTATELLKSELLPPPQMEESELHEVLHHTLTNVDGKAYRTMMAQIFSQRISPAIDYTYDSDILKGNFSIRTAKMQQHVCETIIRIFKRHGAVQLCTPLLLPRNRQIYEHNEAALFMDHSGMLVMLPFDLRIPFARYVARNNILNLKRYCIERVFRPRKLDRFHPKELLECAFDIVTSTTNSFLPTAEIIYTIYEIIQEFPALQERNYSIYLNHTMLLKAILLHCGIPEDKLSQVYIILYDAVTEKLTRREVEAKFCNLSLSSNSLCRLYKFIEQKGDLQDLMPTINSLIKQKTGIAQLVKYGLKDLEEVVGLLKKLGIKLQVLINLGLVYKVQQHNGIIFQFVAFIKRRQRAVPEILAAGGRYDLLIPQFRGPQALGPVPTAIGVSIAIDKISAAVLNMEESVTISSCDLLVVSVGQMSMSRAINLTQKLWTAGITAEIMYDWSQSQEELQEYCRHHEITYVALVSDKEGSHVKVKSFEKERQTEKRVLETELVDHVLQKLRTKVTDERNGREASDNLAVQNLKGSFSNASGLFEIHGATVVPIVSVLAPEKLSASTRRRYETQVQTRLQTSLANLHQKSSEIEILAVDLPKETILQFLSLEWDADEQAFNTTVKQLLSRLPKQRYLKLVCDEIYNIKVEKKVSVLFLYSYRDDYYRILF
stoichiometry N: 2

— article doi:10.1101/2024.08.14.606984 (bioRxiv, 2024)
